Results taken from publication PMC10953500.

How the values were obtained:
[1] = target: receptor binding domain (RBD) of the SARS-CoV-2 spike protein with C-terminal 6xHis-tag (SARS-CoV-2) (UniProt P0DTC2); experiment: SPR
[2] = target: recombinant CD89 (Fc-alpha receptor, FcαRI) with C-terminal His-tag (UniProt P24071); experiment: SPR
Chain of recombinant CD89 (Fc-alpha receptor, FcαRI) with C-terminal His-tag (P24071 22-227): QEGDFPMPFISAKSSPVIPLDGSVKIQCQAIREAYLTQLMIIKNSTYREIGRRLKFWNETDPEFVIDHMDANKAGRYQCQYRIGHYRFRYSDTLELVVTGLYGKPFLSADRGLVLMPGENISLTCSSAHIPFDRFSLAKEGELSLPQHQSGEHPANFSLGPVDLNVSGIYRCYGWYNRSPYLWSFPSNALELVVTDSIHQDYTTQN

Chain of COVA2-15 IgA1 produced in HEK293-6E cells ("HEK") (P01876 whole entry, looked up, tested part not stated): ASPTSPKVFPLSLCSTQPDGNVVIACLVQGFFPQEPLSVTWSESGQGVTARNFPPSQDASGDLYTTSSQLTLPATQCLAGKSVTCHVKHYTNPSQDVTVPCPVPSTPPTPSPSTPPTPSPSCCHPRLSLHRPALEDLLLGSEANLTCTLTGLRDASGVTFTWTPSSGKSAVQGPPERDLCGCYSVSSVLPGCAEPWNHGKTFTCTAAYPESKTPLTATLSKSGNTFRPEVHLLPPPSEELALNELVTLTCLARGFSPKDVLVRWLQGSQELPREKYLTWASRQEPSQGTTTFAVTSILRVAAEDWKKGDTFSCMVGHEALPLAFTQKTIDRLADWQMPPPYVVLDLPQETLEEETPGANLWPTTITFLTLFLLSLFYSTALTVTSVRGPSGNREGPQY
Chain of COVA2-15 IgA1 produced in N. benthamiana wildtype ("WT") (P01876 whole entry, looked up, tested part not stated): as above
Chain of COVA2-15 IgA1 produced in the H10-KO line co-infiltrated with GalNAc-T2 and C1GalT1 ("H10+O") (P01876 whole entry, looked up, tested part not stated): as above
Chain of COVA2-15 IgA1 produced in the NbP4H10 knockout line pB109-1C ("H10-KO") (P01876 whole entry, looked up): as the sequence (P01876 whole entry, looked up, tested part not stated) above

Row | Substance | Kd [1] | Kd [2]
1 | COVA2-15 IgA1 produced in HEK293-6E cells ("HEK") (from UniProt P01876) | 0.85 nM | 36.7 nM
2 | COVA2-15 IgA1 produced in N. benthamiana wildtype ("WT") (from UniProt P01876) | 1.53 nM | 66.6 nM
3 | COVA2-15 IgA1 produced in the H10-KO line co-infiltrated with GalNAc-T2 and C1GalT1 ("H10+O") (from UniProt P01876) | 1.25 nM | 31.7 nM
4 | COVA2-15 IgA1 produced in the NbP4H10 knockout line pB109-1C ("H10-KO") (from UniProt P01876) | 1.31 nM | 61.3 nM
